Source: paper PMC7335806, “Molecular mechanisms that regulate export of the planar cell-polarity protein Frizzled-6 out of the endoplasmic reticulum” (The Journal of Biological Chemistry, 2020)

Tests used:
Assay in all cases: pull-down; peptides (5 nmol) covalently coupled to thiopyridone-Sepharose 6B beads via the C-terminal cysteine; 2 μg purified His-tagged Sar1A preincubated with 500 μM GTPγS in HK buffer (100 mM KCl, 20 mM Hepes pH 7.2); 1 h at 4 °C; immunoblotting
Conditions in all cases: both partners purified
[1] = target: T1, Sar1A (Δ2-17, E62A, E63A, H79G) (human, UniProt Q9NR31 10-198, Δ2-17 | E62A | E63A | H79G)
T1 construct: Sar1A, human, Δ2-17, H79G with E62A and E63A; preincubated with GTPγS; also called Sar1A (Δ2-17, H79G, E62A, E63A)-His; source: recombinant, purified; not shown: His, C-terminal, kept
T1 sequence (Q9NR31 18-198 E62A/E63A/H79G): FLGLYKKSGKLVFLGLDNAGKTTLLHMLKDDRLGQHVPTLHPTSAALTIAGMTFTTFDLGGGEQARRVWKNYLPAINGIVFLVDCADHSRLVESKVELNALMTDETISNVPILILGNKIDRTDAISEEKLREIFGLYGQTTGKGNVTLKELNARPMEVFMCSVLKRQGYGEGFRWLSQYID

[2] = target: T2, Sar1A (Δ2-17, H79G, D198A) (human, UniProt Q9NR31 10-198, Δ2-17 | H79G | D198A)
T2 construct: Sar1A, human, Δ2-17, H79G with D198A; preincubated with GTPγS; also called Sar1A bearing the D198A mutation; source: recombinant, purified
T2 sequence (Q9NR31 18-198 H79G/D198A): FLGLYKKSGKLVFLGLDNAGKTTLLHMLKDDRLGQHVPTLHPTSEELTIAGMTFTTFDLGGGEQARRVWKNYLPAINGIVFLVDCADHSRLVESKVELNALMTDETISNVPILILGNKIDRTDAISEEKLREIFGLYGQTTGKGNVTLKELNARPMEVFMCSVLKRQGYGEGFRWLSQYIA

[3] = target: T3, His-tagged human Sar1A^(Δ2-17, H79G) (human, UniProt Q9NR31 10-198, Δ2-17 | H79G)
T3 construct: Sar1A, human, H79G, depleted of its N-terminal amphipathic helix (Δ2-17); preincubated with GTPγS; also called Sar1A^(Δ2-17, H79G)-His; Sar1A (Δ2-17, H79G)-His; source: recombinant (cloned into pET-28a), purified; not shown: His, C-terminal, kept
T3 sequence (Q9NR31 18-198 H79G): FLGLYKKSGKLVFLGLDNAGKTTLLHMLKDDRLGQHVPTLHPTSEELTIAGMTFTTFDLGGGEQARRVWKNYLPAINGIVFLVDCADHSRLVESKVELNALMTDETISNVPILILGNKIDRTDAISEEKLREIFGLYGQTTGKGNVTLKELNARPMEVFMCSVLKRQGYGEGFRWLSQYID

Measured: binding result

B1: RRFR peptides (first intracellular loop of Fzd6) (peptide)
peptide: VRRFRYPERPC
notes: first intracellular loop of Fzd6 with the polybasic motif RRFR; added C-terminal cysteine residue, used to couple the peptide to thiopyridone-Sepharose 6B beads; Covalently linked to thiopyridone-Sepharose 6B through the added C-terminal cysteine; source: synthetic peptide, bought: GenScript
binds: all assays above
